1 substance from publication PMC11325161 can be followed below.

In general, EC50 refers to the concentration giving half of the maximal effect. Read a low EC50 as higher potency in that assay.

The target in this test is SARS-CoV-2 nsp12 wild type (SARS-CoV-2) (UniProt P0DTD1). Kind of test: MST. As to conditions: complex.

Substance “subcomplex of wt nsp7, wt nsp8 and dsRNA (1:2:1) (from UniProt P0DTD1)” gave a concentration giving a half-maximal response (EC50) of 0.0126 µM.
